# Experimental data published in patent publication US8409583B2, “Engineered versions of CgtB (β-1,3 galactosyltransferase) enzymes, with enhanced enzymatic properties” (National Research Council of Canada, priority 2007, dated 2013).
# Experiments:
# Assay type in all cases: biochemical
# [1] = CgtB activity assay (capillary electrophoresis), acceptor GalNAcα-FCHASE; settings: for Relative activity (%): GalNAcα-FCHASE at 0.5 mM, reference (100%) GM2-FCHASE for CgtBOH4384 and CgtB11168, GA2-FCHASE for CgtBHS:10, average of two experiments; for Specific Activity (mU/mg) on a given FCHASE-labeled acceptor: purified enzyme, 3 mM GalNAcα-FCHASE
# Description: (§1) The oligosaccharide acceptors and the interferon alpha 2b (IFNα2b) peptide (VGVTETP, corresponding to positions 103-109 of the mature IFNα2b protein) were labeled with FCHASE as previously described (Wakarchuk, W. et al., J Biol. Chem. 271:19166-19173 (1996)). IFNα2b-FCHASE was purified by reverse-phase chromatography using a PRP-1 column (10×250 mm, Hamilton Company, Reno, Nev.) in 10 mM ammonium acetate pH 5.5 with a gradient of acetonitrile (0-100% over 4 column volumes). […] All reactions were stopped by addition of 10 μL of 50% acetonitrile, 10 mM EDTA and 1% SDS and were diluted with H2O to obtain 10-15 μM final concentration of the FCHASE-labeled compounds. The samples were analyzed by capillary electrophoresis as described previously (Wakarchuk, W. W. et al., Methods Mol. Biol. 213:263-274 (2003)) except that a P/ACE MDQ Capillary Electrophoresis System equipped with a Laser module 488 (Beckman Coulter, Calif.) was used. Quantitation of the reactions was performed by integration of the trace peaks using the MDQ 32 Karat software.
# [2] = CgtB activity assay (capillary electrophoresis), acceptor GalNAcβ-FCHASE; settings: for Relative activity (%): GalNAcβ-FCHASE at 0.5 mM, reference (100%) GM2-FCHASE for CgtBOH4384 and CgtB11168, GA2-FCHASE for CgtBHS:10, average of three experiments; for Specific Activity (mU/mg) on a given FCHASE-labeled acceptor: purified enzyme, 3 mM GalNAcβ-FCHASE
# Description: as §1
# [3] = CgtB activity assay (capillary electrophoresis), acceptor GM2-FCHASE; settings: for Relative activity (%): GM2-FCHASE at 0.5 mM, reference (100%) GM2-FCHASE for CgtBOH4384 and CgtB11168, GA2-FCHASE for CgtBHS:10, average of three experiments; for Specific Activity (mU/mg) on a given FCHASE-labeled acceptor: purified enzyme, 1 mM GM2-FCHASE
# Description: (§2) The oligosaccharide acceptors and the interferon alpha 2b (IFNα2b) peptide (VGVTETP, corresponding to positions 103-109 of the mature IFNα2b protein) were labeled with FCHASE as previously described (Wakarchuk, W. et al., J Biol. Chem. 271:19166-19173 (1996)). IFNα2b-FCHASE was purified by reverse-phase chromatography using a PRP-1 column (10×250 mm, Hamilton Company, Reno, Nev.) in 10 mM ammonium acetate pH 5.5 with a gradient of acetonitrile (0-100% over 4 column volumes). CgtB activity assays were done in cell lysates or using purified enzyme in 50 mM MES pH 6.0, 0.5 mM of FCHASE-acceptor (unless otherwise indicated), 10 mM MnCl2, 10 mM DTT, 1 mM UDP-Gal at 37° C. from 5 to 30 minutes. All reactions were stopped by addition of 10 μL of 50% acetonitrile, 10 mM EDTA and 1% SDS and were diluted with H2O to obtain 10-15 μM final concentration of the FCHASE-labeled compounds. The samples were analyzed by capillary electrophoresis as described previously (Wakarchuk, W. W. et al., Methods Mol. Biol. 213:263-274 (2003)) except that a P/ACE MDQ Capillary Electrophoresis System equipped with a Laser module 488 (Beckman Coulter, Calif.) was used. Quantitation of the reactions was performed by integration of the trace peaks using the MDQ 32 Karat software.
# [4] = CgtB activity assay (capillary electrophoresis), acceptor lyso-GM2-FCHASE; settings: lysoGM2-FCHASE at 0.5 mM; reference (100%) GM2-FCHASE for CgtBOH4384 and CgtB11168, GA2-FCHASE for CgtBHS:10; average of three experiments
# Description: as §2
# [5] = CgtB activity assay (capillary electrophoresis), acceptor GA2-FCHASE; settings: GA2-FCHASE at 0.5 mM; reference (100%) GM2-FCHASE for CgtBOH4384 and CgtB11168, GA2-FCHASE for CgtBHS:10; average of two experiments
# Description: as §2
# [6] = system: IFNα2b[Tn]-FCHASE; assay: CgtB activity assay (capillary electrophoresis), glycopeptide acceptor IFNα2b[Tn]-FCHASE; settings: purified enzyme; 1 mM IFNα2b[Tn]-FCHASE
# Description: as §2
# The IFNα2b protein was purchased from Cell Sciences (Canton, Mass.). […]
Molecule,Relative activity (%) [1],Specific Activity (mU/mg) on a given FCHASE-labeled acceptor [1],Relative activity (%) [2],Specific Activity (mU/mg) on a given FCHASE-labeled acceptor [2] [mU/mg],Relative activity (%) [3],Specific Activity (mU/mg) on a given FCHASE-labeled acceptor [3] [mU/mg],Relative activity (%) [4],Relative activity (%) [5],Specific Activity (mU/mg) on a given FCHASE-labeled acceptor [6] [mU/mg]
"CJL-10: Full length CgtB β-1,3-galactosyltransferase from C. jejuni OH4384 fused to E. coli MalE (maltose binding protein) at the N-terminus (protein, left off: large carriers) MFKISIILPTYNVEQYIARAIESCINQTFKDIEIIVVDDCGNDNSINIAKEYSKKDKRIKIIHNEKNLGLLRARYEGVKVANSPYIMFLDPDDYLELNACEECIKILDEQDEVDLVFFNAIVESNVISYKKFDFNSGFYSKKEFVKKIIAKKNLYWTMWGKLIRKKLYLEAFASLRLEKDVKINMAEDVLLYYPMLSQAQKIAYMNCNLYHYVPNNNSICNTKNEVLVKNNIQELQLVLNYLRQNYILNKYCSVLYVLIKYLLYIQIYKIKRTKLMVTLLAKINILTLKILFKYKKFLKQC",6.4^3%,158^1 mU/mg,47.5^4%,192,100^4%,210,444^4%,29^3%,83.5
"CJL-20: Full length CgtB from C. jejuni NCTC 11168 fused to MalE at the N-terminus (protein, left off: large carriers, Full length CgtB from C. jejuni NCTC 11168 fused to MalE at the N-terminus) MSQISIILPTYNVEKYIARALESCINQTFKDIEIIVVDDCGNDKSIDIAKEYASKDDRIKIIHNEENLKLLRARYEGAKVATSPYIMFLDSDDYLELNACEECIKILDMGGGGKIDLLCFEAFITNAKKSIKKLNIKQGKYNNKEFTMQILKTKNPFWTMWAKIIKKDIYLKAFNMLNLKKEIKINMAEDALLYYPLTILSNEIFYLTQPLYTQHVNSNSITNNINSLEANIQEHKIVLNVLKSIKNKKTPLYFLIIYLLKIQLLKYEQNFNKRNINLIYYKINILYQKYQFKWKKFLYNLIP",3.0^3%,13.6 mU/mg,50.5^4%,40.4,100^4%,27,606.2^4%,8.8^3%,
